2 molecules from patent US20200223910A1 (STERLING IP, published 2020) can be followed below.

The target of assay [1] is T1, human TNR rCd4-His-FBG (rat; human, UniProt P05540 209-391; Q92752 1128-1358, limits assumed).
T1 construct: domain: domains 3 and 4;domain: FBG; also called Hu TNR; hTNR; not shown: 6His tag
T1 sequence (chain (part 1 of 2), looked up): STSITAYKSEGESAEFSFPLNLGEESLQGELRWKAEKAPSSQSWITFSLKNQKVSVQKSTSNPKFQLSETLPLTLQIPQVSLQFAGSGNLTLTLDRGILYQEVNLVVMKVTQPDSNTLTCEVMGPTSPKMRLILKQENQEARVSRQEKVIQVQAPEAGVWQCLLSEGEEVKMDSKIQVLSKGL
T1 sequence (chain (part 2 of 2), looked up): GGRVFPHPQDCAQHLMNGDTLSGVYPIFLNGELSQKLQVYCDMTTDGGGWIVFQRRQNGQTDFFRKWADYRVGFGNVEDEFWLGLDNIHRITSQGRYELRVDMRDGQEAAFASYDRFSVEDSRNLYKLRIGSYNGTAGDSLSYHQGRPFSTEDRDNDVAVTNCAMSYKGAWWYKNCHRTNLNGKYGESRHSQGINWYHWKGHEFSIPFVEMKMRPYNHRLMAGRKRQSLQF
As to the kind of experiment: SPR BIAcore T200, 37 C, IgG4 captured on anti-human Fc, rCd4-His-FBG injected, 1:1 fit. The protocol: (§1) For the kinetic assay ˜1,500-1,900 response units (RU) of anti-human Fc IgG (GE, BR-1008-39) was immobilised in all flow-cells (FC1-4) on a Series S CM5 sensor chip (BR-1005-30) using EDC/NHS cross-linking chemistry according to the amine coupling kit protocol (GE, BR-1000-50). […] Antibody capture levels ranged typically from 70 RU (for TNR interactions) to 90 RU (for TNC interactions).
(§2) A 1:1 dilution series of antigen in HBS-P+ (30 nM of human and mouse TNC rCd4-His-FBG and 480 nM of human TNR rCd4-His-FBG) was injected with a flow-path via the reference flow cell (FC1 and FC3, respectively) and the antibody capture flow cell (FC2 and FC4, respectively) with a flow rate of 30 μl/min. The association and dissociation phases were measured over a 3.5 and 30 min time period, respectively, for human and mouse TNC rCd4-His-FBG, and 2 and 8 min time period for human TNR rCd4-His-FBG. For interaction analysis with human and mouse TNC rCD4-His-FBG regeneration of free capture antibody surfaces after each antigen injection was done by injection of 3 M MgCl 2 for 60 s and for each sample injection a fresh NSCT antibody was captured. Carry over of antigen was prohibited by an extra needle wash step with 50% DMSO before every injection. Runs were performed at the more physiologically relevant temperature of 37° C.
(§3) Kinetic parameters were determined by reference cell subtraction and fitting the sensorgram experimental data to a 1:1 interaction model using the BIAcore T200 Evaluation software version 2.0.

In assay [2] the target is T2, mouse TNC rCd4-His-FBG (rat; mouse, UniProt P05540 209-391; Q80YX1 1883-2110, limits assumed).
T2 construct: domain: domains 3 and 4;domain: FBG; Biotinylated in the capture ELISA; also called Mu TNC; mTNC; not shown: 6His tag
T2 sequence (chain (part 1 of 2), looked up): T1 sequence (chain (part 1 of 2), looked up)
T2 sequence (chain (part 2 of 2), looked up): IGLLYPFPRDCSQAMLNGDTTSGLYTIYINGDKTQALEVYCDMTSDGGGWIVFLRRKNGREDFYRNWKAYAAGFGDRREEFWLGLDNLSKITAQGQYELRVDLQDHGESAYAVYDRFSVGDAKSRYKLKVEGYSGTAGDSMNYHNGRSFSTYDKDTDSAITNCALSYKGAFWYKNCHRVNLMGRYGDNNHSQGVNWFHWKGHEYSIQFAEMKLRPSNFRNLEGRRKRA
The assay is described as above. The protocol: as §1, §2, §3

Assay [3] deals with T3, human TNC rCd4-His-FBG (rat; human, UniProt P05540 209-391; P24821 1974-2201, limits assumed).
T3 construct: domain: domains 3 and 4;domain: FBG; C-terminal FBG fusion made in HEK293F cells; biotinylated in the ELISA and HTRF assays; also called Hu TNC; hTNC; not shown: 6His tag
T3 sequence (chain (part 1 of 2), looked up): T1 sequence (chain (part 1 of 2), looked up)
T3 sequence (chain (part 2 of 2), looked up): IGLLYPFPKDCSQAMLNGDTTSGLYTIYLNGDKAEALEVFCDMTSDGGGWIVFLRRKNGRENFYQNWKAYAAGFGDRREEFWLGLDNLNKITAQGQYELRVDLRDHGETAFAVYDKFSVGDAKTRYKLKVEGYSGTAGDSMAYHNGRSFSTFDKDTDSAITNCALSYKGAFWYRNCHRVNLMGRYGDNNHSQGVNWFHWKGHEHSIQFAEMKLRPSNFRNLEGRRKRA
Described as above. The method, then:
as §1, §2, §3

The target of assay [4] is T1, human TNR rCd4-His-FBG. As to the kind of experiment: SPR BIAcore T200, 37 C, IgG4 captured on anti-human Fc, rCd4-His-FBG injected, 1:1 fit; relative to theoretical Rmax. The protocol:
as §1, §2, §3

The target in assay [5] is T2, mouse TNC rCd4-His-FBG. The description is as above. The method, then: as §1, §2, §3
In assay [6] the target is T3, human TNC rCd4-His-FBG. The assay is described as above. The protocol:
as §1, §2, §3

In assay [7] the target is T1, human TNR rCd4-His-FBG. Briefly: SPR, 37 C, purified IgG4 captured on anti-human Fc. The method, then:
(§4) Detailed kinetic parameters were evaluated for the 9 prioritised IgG4 antibodies. Binding characteristics were determined for interaction with human, […] TNC rCD4-His-FBG, and human TNR rCD4-His-FBG. Kinetic assays followed essentially the same protocols as for the off-rate determinations described above, with some modifications as follows. To improve the accuracy of kinetic parameter determination, anti-human Fc IgG was immobilised at lower levels (2229 RU), resulting in a corresponding reduction in the amount of anti-FBG IgG4 captured. Purified anti-FBG IgG4 was diluted to a concentration of 3.5 nM in PBS, pH 7.4, 0.05% Tween-20 and injected into FC2 at a flow rate of 10 μl/min, 60 s contact time. […] Antigens were prepared by doubling dilution in PBS, pH 7.4, 0.05% Tween-20 (highest concentration 100 nM except mouse rCD4-His-FBG which was 7 nM). Assays were performed at 37° C. (30 μl/min, 120 s contact time; mouse rCD4-His-FBGFBG 10 μl/min, 60 s contact time), with both the flow cell and injection chamber equilibrated to this temperature. As before, kinetic parameters were determined by reference cell subtraction and fitting the sensogram experimental data assuming a 1:1 interaction using BIAevaluation software (GE, BR-1005-97).

Assay [8] concerns the target T3, human TNC rCd4-His-FBG. As to the kind of experiment: SPR, 37 C, purified IgG4 captured on anti-human Fc. The protocol: as §4

Residue numbers refer to the chain shown, from its start. In names and notes the source's numbering stands.

B1: IgG4 165_13_C3 (antibody, V domains shown)
VH: QVQLVESGGGLVQPGRSLRLSCAASGFTFDDYAMHWVRQAPGKGLEWVSGISGSGGSTYYADSVKGRFTISRDNAKNSLYLQMNSLRAEDTALYYCAKSYQSDEDAFDIWGQGTMVTVSS
VL: DIQMTQSPASLPTPVGDRVTITCRASQYIQGFLNWYQQKPGKAPKLLIYDASNLETGVPSRFSGSGSGTDFTLTISSLQPEDFATYYCQQSYSTPQTFGQGTKVDIKR
notes: Human IgG4 with hinge modification S241P; also called MAb C3; C3 Mab
Take B1: the Kd with human TNR rCd4-His-FBG [1] was 52.7 nM; in the assay with mouse TNC rCd4-His-FBG [2], 0.433 nM; with human TNC rCd4-His-FBG [3], 1.24 nM. Further, the koff in the assay with human TNR rCd4-His-FBG [1] was found to be 0.059 s⁻¹; with mouse TNC rCd4-His-FBG [2] it was 0.004 s⁻¹; with human TNC rCd4-His-FBG [3], 0.0042 s⁻¹. In addition, the kon with human TNR rCd4-His-FBG [1] came out at 1.13e+06 M⁻¹ s⁻¹; with mouse TNC rCd4-His-FBG [2] it was 9.27e+06 M⁻¹ s⁻¹; with human TNC rCd4-His-FBG [3] it was 3.4e+06 M⁻¹ s⁻¹. Moreover, the “SA, surface activity” value in the assay with human TNR rCd4-His-FBG [4] came to 184%; in the assay with mouse TNC rCd4-His-FBG [5], 303%; in the assay with human TNC rCd4-His-FBG [6] it was 298%. For the same molecule, the “fold lower affinity than to human TNC FBG” value with human TNR rCd4-His-FBG [7] is > 70 fold.

B2: 160_01_A4 IgG4 (antibody, V domains shown)
VH: EVRLVQSGAEVKKPGASVKVSCKVSGYTLTELSMHWVRQAPGKGLEWMGGFDPEDGETIYAQKFQGRVTMTEDTSTDTAYMELSSLRSEDTAVYYCATAQKETLGNAIWGQGTLVTVSS
VL: B1 VL with P14S, K45R, D50A, N53T, E55Q, T56D, S67Y, Q96W, D105E
Regarding B2, the “fold lower affinity than to human TNC FBG” value with human TNR rCd4-His-FBG [7] is > 70 fold. In the assay with human TNC rCd4-His-FBG [8], the Kd was < 1 nM.
